Two molecules from paper PMC10516636, “Structural basis for the selective methylation of 5-carboxymethoxyuridine in tRNA modification” (Nucleic Acids Research, 2023) can be followed below.

Data set [1] concerns the molecule itself. Nature of the data set: SEC; Superdex 75 column, 100 ug wild-type CmoM, 25 mM HEPES pH 7.5, 150 mM NaCl, 0.5 ml/min; ovalbumin (44 kDa) and MnmC (76 kDa) run for comparison.
In another data set the target is T1, CmoM (Escherichia coli (ASKA library clone), UniProt P36566 1-261).
T1 sequence: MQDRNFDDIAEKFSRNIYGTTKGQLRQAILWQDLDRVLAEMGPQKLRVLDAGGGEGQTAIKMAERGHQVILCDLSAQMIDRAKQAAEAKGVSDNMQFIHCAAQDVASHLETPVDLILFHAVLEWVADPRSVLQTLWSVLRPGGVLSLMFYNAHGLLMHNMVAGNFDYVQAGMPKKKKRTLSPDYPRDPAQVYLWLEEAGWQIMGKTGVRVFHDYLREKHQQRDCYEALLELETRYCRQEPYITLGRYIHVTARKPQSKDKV
Nature of the data set: X-ray crystallography (2.22 A); sinefungin (3 mM); Mg2+ (0.04 M magnesium acetate in reservoir); Crystallization: CmoM:tRNA 1:4 molar ratio, 3 mM sinefungin; reservoir 0.04 M Mg acetate, 0.05 M Na cacodylate pH 6.0, 30% MPD, 25 C; protein in 25 mM HEPES pH. Particulars: protein: recombinant; tags: His tag (ASKA pCA24N vector; HisTrap purified); tRNA fold with 16-nt variable arm.

B1: Escherichia coli CmoM (wild type, recombinant) (enzyme, E. coli)
chain: QDRNFDDIAEKFSRNIYGTTKGQLRQAILWQDLDRVLAEMGPQKLRVLDAGGGEGQTAIKMAERGHQVILCDLSAQMIDRAKQAAEAKGVSDNMQFIHCAAQDVASHLETPVDLILFHAVLEWVADPRSVLQTLWSVLRPGGVLSLMFYNAHGLLMHNMVAGNFDYVQAGMPKKKKRTLSPDYPRDPAQVYLWLEEAGWQIMGKTGVRVFHDYLREKHQQRDCYEALLELETRYCRQEPYITLGRYIHVTARKPQSKDKV
notes: CmoM, SAM-dependent tRNA cmo5U34 methyltransferase of E. coli; cmoM gene on pCA24N from the ASKA library; calculated monomer molecular weight 31.7 kDa; 257 protein residues modelled in the crystal structure; also called E. coli CmoM; source: E. coli BL21 (DE3), purified (HisTrap HP Ni2+ column); not shown: His tag (inferred from the HisTrap Ni2+ purification)
As for B1, the stoichiometry N (as a rule, a count of units in the complex or per binding partner) in data set [1] came to 2.

B2: tRNASer1(cmo5UGA) (structured_RNA)
RNA: GGAAGUGUGGCCGAGCGGUUGAAGGCACCGGUCUUGAAAACCGGCGACCCGAAAGGGUUCCAGAGUUCGAAUCUCUGCGCUUCCGCCA
modifications: cmo5U34; i6A37 (partly ms2i6A37); other native tRNA modifications
On to B2, for which, in the data set with CmoM, the binding result is “binds”.
